Laboratory results as given in patent US20130040360.

System: full-length rat proMMP9(1-708) (SEQ ID NO:11)
Sequence (chain, as listed by the source): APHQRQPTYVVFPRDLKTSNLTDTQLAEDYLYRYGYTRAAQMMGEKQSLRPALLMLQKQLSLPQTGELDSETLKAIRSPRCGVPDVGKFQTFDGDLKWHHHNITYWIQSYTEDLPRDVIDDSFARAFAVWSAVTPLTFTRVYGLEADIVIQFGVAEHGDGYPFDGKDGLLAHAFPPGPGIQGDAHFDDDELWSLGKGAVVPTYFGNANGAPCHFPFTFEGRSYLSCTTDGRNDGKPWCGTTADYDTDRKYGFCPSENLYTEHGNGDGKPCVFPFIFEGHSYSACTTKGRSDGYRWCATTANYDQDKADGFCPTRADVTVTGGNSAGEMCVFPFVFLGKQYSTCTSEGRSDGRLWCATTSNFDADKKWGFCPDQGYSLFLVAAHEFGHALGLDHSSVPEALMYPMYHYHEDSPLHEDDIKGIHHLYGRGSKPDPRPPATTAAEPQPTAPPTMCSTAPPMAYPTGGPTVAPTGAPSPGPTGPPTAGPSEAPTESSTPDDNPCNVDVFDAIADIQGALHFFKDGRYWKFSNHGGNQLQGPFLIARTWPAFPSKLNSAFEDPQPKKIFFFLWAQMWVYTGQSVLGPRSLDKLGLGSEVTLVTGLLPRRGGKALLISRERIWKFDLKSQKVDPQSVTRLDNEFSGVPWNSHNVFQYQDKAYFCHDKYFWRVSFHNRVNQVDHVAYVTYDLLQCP

Chain of human catalytic MMP3, MMP3(100-265) (SEQ ID NO:8) (chain, as listed by the source): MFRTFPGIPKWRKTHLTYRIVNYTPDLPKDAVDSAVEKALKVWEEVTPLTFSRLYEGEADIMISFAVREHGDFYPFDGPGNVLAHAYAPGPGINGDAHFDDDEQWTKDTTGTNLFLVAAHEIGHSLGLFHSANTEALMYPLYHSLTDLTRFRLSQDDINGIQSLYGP

## human catalytic MMP3, MMP3(100-265) (SEQ ID NO:8)
  proteolytic conversion of proMMP9 to catalytic MMP9: full-length rat proMMP9(1-708) (SEQ ID NO:11) converted to catalytic rat MMP9 by catalytic MMP3
